According to publication PMC11429891:

Target: human recombinant SNAP25 (Synaptosomal Associated Protein 25) (human), P60880
Test: SPR

Chain of human recombinant SNAP25 (Synaptosomal Associated Protein 25) (human), P60880 (P60880 whole entry): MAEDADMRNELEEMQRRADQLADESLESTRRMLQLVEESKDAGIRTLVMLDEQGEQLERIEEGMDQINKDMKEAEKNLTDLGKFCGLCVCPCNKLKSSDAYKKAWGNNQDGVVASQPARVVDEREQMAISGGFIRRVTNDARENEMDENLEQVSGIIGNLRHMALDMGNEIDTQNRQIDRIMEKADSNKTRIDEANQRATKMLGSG

B1: Bovine Type VI Collagen (complex)
chain 1: not shown
chain 2: QQQEVISPGPSDRNSCPEKADCPVHVYFVLDTSESITMQSPTDSLLYHMQQFVLQFISQLQDELYLDQVALSWRYGGLHFSDLVEVFSPPGSDRASFTKSLQSISSFRRGTFTDCMLANMTQEVRRHVGKGVVNFAVVITDGHVTGSPCGGIKLQAERAREEGIRLFAVPPNLKLNEQGLRDIANTPHELYRNNYATMRPDSTEIDQDTINRIIKVMKHEAYGECYKVSCLEIPGPPGPKGYRGQKGAKGNMGEPGEPGQKGRQGDPGIEGPIGFPGPKGVPGFKGEKGEFGADGRKGAPGLAGKNGTDGQKGKLGRIGPPGCKGDTGDRGPDGYVGEAGSPGERGDQGSKGDPGRPGRRGPPGENGAKGSKGYQGNNGAPGSPGLKGAKGGPGPRGPKGEPGRRGDPGTKGGPGSDGPKGEKGDPGPEGPRGLAGEVGNKGAKANRGLPGPRGPQGTVGEPGKQGSRGDPGDAGPRGDSGQPGPKGDPGRPGFSYPGPRGAPGDKGEPGPPGPEGGRGDFGSKGEPGRKGQKGEPADPGPPGEPGPRGQRGAPGPEGEPGPPGDPGLTECDVMTYVRETCGCCDCEKRCGALDVVFVIDSSESIGYTNFTLEKNFVINVVNRLGAIAKDPKSETGTRVGVVQYSHEGTFEAIQLDDERIDSLSSFKEAVKNLEWIAGGTWTPSALKFAYNKLIKESRRQKTRVFAVVITDGRHDPRDDDLNLRALCNHEVTVTAIGIGDMFHEKHESENLYSIACDKPQQVRNMTLFSDLVAEKFIDDMEDVLCPDPQIVCPDLPCQTELYVAQCTQRPVDIVFLLDGSERLGEQNFHKVRRFVEEVSRRLTLARKDDDPLNARVALLQFGGPREQQVAFPLTSNLTVIQEALASARYLNSFSHVGTGIVQAINQVVQGARAGARRHAELSFVFLTDGVTGNDSLDEAVHSMRKQNVVPTVVAVGSDVDTDVLSKISLGDPAAVFREKDYDSLAQPGFFDRFIRWIC
chain 3: not shown
  Kd: 15 nM
